Laboratory results from FireProtDB (doi:10.1002/prot.1088).
Where “and” joins values, the source holds several entries; their conditions need not be identical. Equal entries are not always repeated.

B1: Lysozyme C, P61626 (parent)
chain: MKALIVLGLVLLSVTVQGKVFERCELARTLKRLGMDGYRGISLANWMCLAKWESGYNTRATNYNAGDRSTDYGIFQINSRYWCNDGKTPGAVNACHLSCSALLQDNIADAVACAKRVVRDPQGIRAWVAWRNRCQNRDVRQYVQGCGV

Variants of: B1
Details: Homo sapiens; pH 2.5; Thermal; DSC; Gly-HCl 0.05 M; reversible: yes; structure 1LZ1; whole UniProt chain shown

Variant	Tm [°C]	unfolding enthalpy (calorimetric) [kcal/mol]	unfolding enthalpy (van 't Hoff) [kcal/mol]
MKALIVLGLVLLSVTVQGKVFERCELARTLKRLGMDGYRGISLANWMCLAKWESGYNTRATNYNAGDRSTDYGIFQINSRYWCNDGKTPGAVNACALSCSALLQDNIADAVACAKRVVRDPQGIRAWVAWRNRCQNRDVRQYVQGCGV [H96A]	61.1	97.5	107
MKALIVLGLVLLSVTVQGKVFERCELARTLKRLGMDGYRGISLANWMCLAKWESGYNTRATNYNAGDASTDYGIFQINSRYWCNDGKTPGAVNACHLSCSALLQDNIADAVACAKRVVRDPQGIRAWVAWRNRCQNRDVRQYVQGCGV [R68A]	62.8	101	108
MKALIVLGLVLLSVTVQGKVFERCELARTLKRLGMDGYRGISLANWMCLAKWESGYNTRATNYNAGDRSTDYGIFAINSRYWCNDGKTPGAVNACHLSCSALLQDNIADAVACAKRVVRDPQGIRAWVAWRNRCQNRDVRQYVQGCGV [Q76A]	64.5	97	103
MKALIVLGLVLLSVTVQGKVFERCELARTLKRLGMDGYRGISLANWMCLAKWESGGNTRATNYNAGDRSTDYGIFQINSRYWCNDGKTPGAVNACHLSCSALLQDNIADAVACAKRVVRDPQGIRAWVAWRNRCQNRDVRQYVQGCGV [Y56G]	53	85.8	87
MKALIVLGLVLLSVTVQGKVFERCELARTLKRLGMDGYGGISLANWMCLAKWESGYNTRATNYNAGDRSTDYGIFQINSRYWCNDGKTPGAVNACHLSCSALLQDNIADAVACAKRVVRDPQGIRAWVAWRNRCQNRDVRQYVQGCGV [R39G]	64.6	102	107

Same assay, conditions: Homo sapiens; pH 2.7; 64.9 °C; Thermal; DSC; Gly-HCl 0.05 M; reversible: yes; structure 1LZ1; whole UniProt chain shown

Variant	ddG of mutation (higher = less stable) [kcal/mol]
MKALIVLGLVLLSVTVQGKVFERCELARTLKRLGMDGYRGISLANWMCLAKWESGYNTRATNYNAGDRSTDYGIFQINSRYWCNDGKTPGAVNACALSCSALLQDNIADAVACAKRVVRDPQGIRAWVAWRNRCQNRDVRQYVQGCGV [H96A]	0.14
MKALIVLGLVLLSVTVQGKVFERCELARTLKRLGMDGYRGISLANWMCLAKWESGYNTRATNYNAGDASTDYGIFQINSRYWCNDGKTPGAVNACHLSCSALLQDNIADAVACAKRVVRDPQGIRAWVAWRNRCQNRDVRQYVQGCGV [R68A]	-0.43
MKALIVLGLVLLSVTVQGKVFERCELARTLKRLGMDGYRGISLANWMCLAKWESGYNTRATNYNAGDRSTDYGIFAINSRYWCNDGKTPGAVNACHLSCSALLQDNIADAVACAKRVVRDPQGIRAWVAWRNRCQNRDVRQYVQGCGV [Q76A]	-0.91
MKALIVLGLVLLSVTVQGKVFERCELARTLKRLGMDGYRGISLANWMCLAKWESGGNTRATNYNAGDRSTDYGIFQINSRYWCNDGKTPGAVNACHLSCSALLQDNIADAVACAKRVVRDPQGIRAWVAWRNRCQNRDVRQYVQGCGV [Y56G]	2.32
MKALIVLGLVLLSVTVQGKVFERCELARTLKRLGMDGYGGISLANWMCLAKWESGYNTRATNYNAGDRSTDYGIFQINSRYWCNDGKTPGAVNACHLSCSALLQDNIADAVACAKRVVRDPQGIRAWVAWRNRCQNRDVRQYVQGCGV [R39G]	-1.15

Same assay, conditions: Homo sapiens; pH 2.7; Thermal; DSC; Gly-HCl 0.05 M; reversible: yes; structure 1LZ1; whole UniProt chain shown

Variant	Tm	change of melting temperature, mutant - wild type (higher = more stable) [°C]	heat capacity change of unfolding [kcal/mol/K]	unfolding enthalpy (calorimetric)	unfolding enthalpy (van 't Hoff) [kcal/mol]
MKALIVLGLVLLSVTVQGKVFERCELARTLKRLGMDGYRGISLANWMCLAKWESGYNTRATNYNAGDRSTDYGIFQINSRYWCNDGKTPGAVNACALSCSALLQDNIADAVACAKRVVRDPQGIRAWVAWRNRCQNRDVRQYVQGCGV [H96A]	64.3 °C and 64.4 °C	-0.5	1.51	103 kcal/mol	112
MKALIVLGLVLLSVTVQGKVFERCELARTLKRLGMDGYRGISLANWMCLAKWESGYNTRATNYNAGDASTDYGIFQINSRYWCNDGKTPGAVNACHLSCSALLQDNIADAVACAKRVVRDPQGIRAWVAWRNRCQNRDVRQYVQGCGV [R68A]	66.3 °C	1.4	1.51	104 kcal/mol	
MKALIVLGLVLLSVTVQGKVFERCELARTLKRLGMDGYRGISLANWMCLAKWESGYNTRATNYNAGDRSTDYGIFAINSRYWCNDGKTPGAVNACHLSCSALLQDNIADAVACAKRVVRDPQGIRAWVAWRNRCQNRDVRQYVQGCGV [Q76A]	67.8 °C and 68 °C	3.1	1.65	104 kcal/mol and 98.2 kcal/mol	113
MKALIVLGLVLLSVTVQGKVFERCELARTLKRLGMDGYRGISLANWMCLAKWESGGNTRATNYNAGDRSTDYGIFQINSRYWCNDGKTPGAVNACHLSCSALLQDNIADAVACAKRVVRDPQGIRAWVAWRNRCQNRDVRQYVQGCGV [Y56G]	56.7 °C	-8.2	0.96	96.8 kcal/mol	
MKALIVLGLVLLSVTVQGKVFERCELARTLKRLGMDGYGGISLANWMCLAKWESGYNTRATNYNAGDRSTDYGIFQINSRYWCNDGKTPGAVNACHLSCSALLQDNIADAVACAKRVVRDPQGIRAWVAWRNRCQNRDVRQYVQGCGV [R39G]	68.6 °C	3.7	1.74	103 kcal/mol	

Same assay, conditions: Homo sapiens; pH 3; Thermal; DSC; Gly-HCl 0.05 M; reversible: yes; structure 1LZ1; whole UniProt chain shown

Variant	Tm [°C]	unfolding enthalpy (calorimetric) [kcal/mol]	unfolding enthalpy (van 't Hoff) [kcal/mol]
MKALIVLGLVLLSVTVQGKVFERCELARTLKRLGMDGYRGISLANWMCLAKWESGYNTRATNYNAGDRSTDYGIFQINSRYWCNDGKTPGAVNACALSCSALLQDNIADAVACAKRVVRDPQGIRAWVAWRNRCQNRDVRQYVQGCGV [H96A]	69.5	110	117
MKALIVLGLVLLSVTVQGKVFERCELARTLKRLGMDGYRGISLANWMCLAKWESGYNTRATNYNAGDASTDYGIFQINSRYWCNDGKTPGAVNACHLSCSALLQDNIADAVACAKRVVRDPQGIRAWVAWRNRCQNRDVRQYVQGCGV [R68A]	70.9	114	121

Same assay, conditions: Homo sapiens; pH 2.71; Thermal; DSC; Gly-HCl 0.05 M; reversible: yes; structure 1LZ1; whole UniProt chain shown

Variant	Tm [°C]	unfolding enthalpy (calorimetric) [kcal/mol]	unfolding enthalpy (van 't Hoff) [kcal/mol]
MKALIVLGLVLLSVTVQGKVFERCELARTLKRLGMDGYRGISLANWMCLAKWESGYNTRATNYNAGDASTDYGIFQINSRYWCNDGKTPGAVNACHLSCSALLQDNIADAVACAKRVVRDPQGIRAWVAWRNRCQNRDVRQYVQGCGV [R68A]	66.6	106	113

Same assay, conditions: Homo sapiens; pH 2.84; Thermal; DSC; Gly-HCl 0.05 M; reversible: yes; structure 1LZ1; whole UniProt chain shown

Variant	Tm [°C]	unfolding enthalpy (calorimetric) [kcal/mol]	unfolding enthalpy (van 't Hoff) [kcal/mol]
MKALIVLGLVLLSVTVQGKVFERCELARTLKRLGMDGYRGISLANWMCLAKWESGYNTRATNYNAGDASTDYGIFQINSRYWCNDGKTPGAVNACHLSCSALLQDNIADAVACAKRVVRDPQGIRAWVAWRNRCQNRDVRQYVQGCGV [R68A]	69.1	109	117

Same assay, conditions: Homo sapiens; pH 3.1; Thermal; DSC; Gly-HCl 0.05 M; reversible: yes; structure 1LZ1; whole UniProt chain shown

Variant	Tm [°C]	unfolding enthalpy (calorimetric) [kcal/mol]	unfolding enthalpy (van 't Hoff) [kcal/mol]
MKALIVLGLVLLSVTVQGKVFERCELARTLKRLGMDGYRGISLANWMCLAKWESGYNTRATNYNAGDRSTDYGIFAINSRYWCNDGKTPGAVNACHLSCSALLQDNIADAVACAKRVVRDPQGIRAWVAWRNRCQNRDVRQYVQGCGV [Q76A]	75.1	115	123

Same assay, conditions: Homo sapiens; pH 2.78; Thermal; DSC; Gly-HCl 0.05 M; reversible: yes; structure 1LZ1; whole UniProt chain shown

Variant	Tm [°C]	unfolding enthalpy (calorimetric) [kcal/mol]	unfolding enthalpy (van 't Hoff) [kcal/mol]
MKALIVLGLVLLSVTVQGKVFERCELARTLKRLGMDGYRGISLANWMCLAKWESGGNTRATNYNAGDRSTDYGIFQINSRYWCNDGKTPGAVNACHLSCSALLQDNIADAVACAKRVVRDPQGIRAWVAWRNRCQNRDVRQYVQGCGV [Y56G]	58.5	90.1	92.3

Same assay, conditions: Homo sapiens; pH 3.24; Thermal; DSC; Gly-HCl 0.05 M; reversible: yes; structure 1LZ1; whole UniProt chain shown

Variant	Tm [°C]	unfolding enthalpy (calorimetric) [kcal/mol]	unfolding enthalpy (van 't Hoff) [kcal/mol]
MKALIVLGLVLLSVTVQGKVFERCELARTLKRLGMDGYRGISLANWMCLAKWESGGNTRATNYNAGDRSTDYGIFQINSRYWCNDGKTPGAVNACHLSCSALLQDNIADAVACAKRVVRDPQGIRAWVAWRNRCQNRDVRQYVQGCGV [Y56G]	65.6	97.8	99.7

Same assay, conditions: Homo sapiens; pH 2.69; Thermal; DSC; Gly-HCl 0.05 M; reversible: yes; structure 1LZ1; whole UniProt chain shown

Variant	Tm [°C]	unfolding enthalpy (calorimetric) [kcal/mol]	unfolding enthalpy (van 't Hoff) [kcal/mol]
MKALIVLGLVLLSVTVQGKVFERCELARTLKRLGMDGYGGISLANWMCLAKWESGYNTRATNYNAGDRSTDYGIFQINSRYWCNDGKTPGAVNACHLSCSALLQDNIADAVACAKRVVRDPQGIRAWVAWRNRCQNRDVRQYVQGCGV [R39G]	68.2	109	113

Same assay, conditions: Homo sapiens; pH 2.81; Thermal; DSC; Gly-HCl 0.05 M; reversible: yes; structure 1LZ1; whole UniProt chain shown

Variant	Tm [°C]	unfolding enthalpy (calorimetric) [kcal/mol]	unfolding enthalpy (van 't Hoff) [kcal/mol]
MKALIVLGLVLLSVTVQGKVFERCELARTLKRLGMDGYGGISLANWMCLAKWESGYNTRATNYNAGDRSTDYGIFQINSRYWCNDGKTPGAVNACHLSCSALLQDNIADAVACAKRVVRDPQGIRAWVAWRNRCQNRDVRQYVQGCGV [R39G]	70.9	113	116
